Data on 167 variants can be found in the RNAGym collection of RNA variant scans (doi:10.7554/elife.80360).

B1: Hairpin Ribozyme (parent)
chain: GUCCUCUUUCACGUGCGCGUGAAAGAGAGAAGUGAACCAGAGAAACACACGUUGUGGUAUAUUACCUGGUA

In this data set the parent is B1. Kind of data set: self-cleavage, relative activity (ratio to wild type); higher = more cleavage; co-transcriptional.
For the variant A35G A39C, the self-cleavage came to 0.257.

U33G U53A: the self-cleavage was 0.138.

With A35C U53A, the self-cleavage worked out at 0.995. The same measure for A35C U53C: 0.835; for G34C A36C: 1.25; for G34C A36U: 0.938. The same measure for A35G U52A: 1.02. As to G34C G40C, the self-cleavage was 0.188.

G34A A64G: the self-cleavage stood at 0.625. Turning to G34U G51C, the self-cleavage was 1.49. Consider U33A G54U, for which the self-cleavage is 0.186. Consider U33A G54A, for which the self-cleavage turned out to be 0.213. G34C G69U: the self-cleavage was determined as 0.729. For the variant G34C C50A, the self-cleavage is 1.1. Take G34U A71C: the self-cleavage is 1.72. As to A35G A41C, the self-cleavage was 1.31. The same measure for A35G C66U: 0.553; for U33G C37A: 0.109; for U33G C37G: 0.064.

With U33G C37U, the self-cleavage was 0.267. Turning to A35G U53G, the self-cleavage was found to be 0.955.

As to A35G U53C, the self-cleavage was determined as 0.928. With A35G G57U, the self-cleavage was 0.205. Take A35G G57A: the self-cleavage amounted to 0.222. In the case of A35C C66G, the self-cleavage was 0.159.

For A35C C66A, the self-cleavage was determined as 0.293.

With G34A G40A, the self-cleavage came to 0.407. With G34A G40U, the self-cleavage stood at 0.198. The same measure for A35C U63A: 0.13.

For the variant G34C G51C, the self-cleavage was found to be 1.44. Consider G34U A35U, for which the self-cleavage was 1.44.

For the variant U33A A39U, the self-cleavage came out at 0.0937. Regarding U33A A39G, the self-cleavage is 0.122. With U33A G57A the figure was 0.137. In the case of U33A G57C, the self-cleavage came out at 0.157. Turning to G34A G42U, the self-cleavage was determined as 0.406.

Turning to U33C A43G, the self-cleavage amounted to 0.196. Regarding G34A A35C, the self-cleavage is 1.43. The same measure for G34A A35G: 1.1; for G34A G54C: 0.302. With G34A G54A the figure was 0.745. The same measure for U33G A49C: 0.114; for U33G A49G: 0.135; for A35C U67C: 0.217. As to A35C A47C, the self-cleavage is 0.564. Regarding U33C C48A, the self-cleavage was found to be 0.0642.

U33C C48G: the self-cleavage was found to be 0.227. Turning to U33A G51C, the self-cleavage was determined as 0.157. As to A35C G51U, the self-cleavage came to 1.24. With G34U U53G the figure was 1.58.

G34U U53A: the self-cleavage is 1.46. With G34U U53C, the self-cleavage is 0.405. In the case of U33G C50A, the self-cleavage stood at 0.123.

In the case of U33G C50U, the self-cleavage turned out to be 0.14. For G34C C66U, the self-cleavage worked out at 1.29.

As for G34C C66G, the self-cleavage came to 0.627. G34A A71U: the self-cleavage was found to be 1.02.

As for U33C A44C, the self-cleavage worked out at 0.226. As to U33A A45G, the self-cleavage stood at 0.127.

Regarding U33A A45C, the self-cleavage worked out at 0.231. Take U33G G51A: the self-cleavage stood at 0.118. For G34C A41C, the self-cleavage stood at 1.47. Consider G34C A41G, for which the self-cleavage worked out at 1.31.

For G34U C38A, the self-cleavage was 0.658. Consider G34A G56A, for which the self-cleavage amounted to 0.252. U33G C46G: the self-cleavage amounted to 0.174. For the variant U33C A39U, the self-cleavage was determined as 0.0555.

With G34C U67C, the self-cleavage is 0.785. For U33A G42C, the self-cleavage came out at 0.14. For A35G C50G, the self-cleavage worked out at 0.19.

Regarding A35G C50A, the self-cleavage worked out at 0.326. Consider U33A U52A, for which the self-cleavage was 0.122. G34U U63G: the self-cleavage turned out to be 0.261. Take G34U U63C: the self-cleavage was 0.589. On to U33A A47C, for which the self-cleavage turned out to be 0.0723. With A35G C37G the figure was 0.422; with A35G C37A, 0.416; with U33A U63C, 0.0601. On to U33C U53A, for which the self-cleavage came to 0.198. On to G34U C48G, for which the self-cleavage came to 0.371. Turning to G34U C48A, the self-cleavage was 0.497. As to A35C A45G, the self-cleavage turned out to be 0.083. With A35C A45U, the self-cleavage amounted to 0.0921. With A35G A59C the figure was 0.104. On to G34C U53G, for which the self-cleavage was found to be 1.03. In the case of G34C U53A, the self-cleavage was determined as 0.963. For the variant G34C U53C, the self-cleavage is 1.36. With A35C C38A the figure was 0.201; with G34U C65A, 1.57. In the case of G34U C65U, the self-cleavage turned out to be 1.3. The same measure for G34C G56U: 0.331. Take G34C G56C: the self-cleavage worked out at 0.37.

Take G34C G56A: the self-cleavage was found to be 0.737. Regarding G34U U62A, the self-cleavage turned out to be 0.981. For U33A A36C, the self-cleavage was 0.0569. With U33A C65A, the self-cleavage worked out at 0.225. With U33A C65G the figure was 0.225; with G34C A45C, 0.0204; with G34U G69C, 0.759.

With G34U G69U, the self-cleavage came out at 1.1.

Consider U33G A64G, for which the self-cleavage turned out to be 0.108. In the case of A35U A61C, the self-cleavage came out at 0.265. On to G34U A36U, for which the self-cleavage is 1.52. As to U33A C46U, the self-cleavage amounted to 0.0735. Consider A35G C48U, for which the self-cleavage is 0.132. In the case of G32U U70A, the self-cleavage was 0.111. Consider U33G A36U, for which the self-cleavage was found to be 0.129. On to A35U A49G, for which the self-cleavage amounted to 0.31. With U33C A61G, the self-cleavage is 0.0977. Take U33G G57U: the self-cleavage was found to be 0.2. As for A35G G42A, the self-cleavage is 0.174. On to A35G G42C, for which the self-cleavage came to 0.231.

Regarding G34A A59G, the self-cleavage worked out at 0.2. As for G34C A47C, the self-cleavage was 1.38. Turning to U33A A49G, the self-cleavage turned out to be 0.0427.

Consider U33G A61C, for which the self-cleavage stood at 0.041.

Take A35G A45U: the self-cleavage is 0.25.

With A35C G68C, the self-cleavage was found to be 0.145. The same measure for A35C G68A: 0.279.

Regarding G34A C46A, the self-cleavage came to 0.198.

Take G34U C66A: the self-cleavage came out at 1.02.

As for G34U C66U, the self-cleavage worked out at 1.31. As to G34U C66G, the self-cleavage was 0.548.

On to A35G G51A, for which the self-cleavage came out at 0.964. As to A35G G51U, the self-cleavage came out at 0.949.

As for A35C C46G, the self-cleavage was found to be 0.0823. Take G34A A43U: the self-cleavage came to 0.18.

G34C G42A: the self-cleavage was determined as 0.968. Turning to G34C G42C, the self-cleavage was found to be 0.907.

Take U33C U52G: the self-cleavage was 0.1. For the variant U33C U52A, the self-cleavage is 0.162. The same measure for G34C A49U: 0.743.

With G34C A49C, the self-cleavage amounted to 0.186.

On to A35U A36U, for which the self-cleavage was 0.524. U33G U55A: the self-cleavage stood at 0.11. The same measure for U33G U55G: 0.0574; for U33C G51A: 0.231; for U33C G51U: 0.144. In the case of A35C U58G, the self-cleavage worked out at 0.954. As to A35C U58A, the self-cleavage is 0.841. With A35G C46G, the self-cleavage was 0.0878.

Regarding A35G C46U, the self-cleavage worked out at 0.145. For the variant U33C A71C, the self-cleavage was found to be 0.63. Take U33C A71G: the self-cleavage amounted to 0.241. Regarding G34A C65U, the self-cleavage turned out to be 0.673.

Consider U33A A44G, for which the self-cleavage was determined as 0.16. Take U33A A44C: the self-cleavage is 0.205. With A35C G56C, the self-cleavage was determined as 0.196. With U33C G69A the figure was 0.0835; with U33C G69C, 0.114; with A35C C48U, 0.101.

For the variant U33C G42A, the self-cleavage was found to be 0.0915. Regarding A35G A61U, the self-cleavage was 0.245.

Turning to A35G A61C, the self-cleavage stood at 0.0992.

U33C G34A: the self-cleavage amounted to 0.142.

Regarding U33C G34C, the self-cleavage was determined as 1.28. For A35C A71C, the self-cleavage amounted to 1.27. With G34U G56A the figure was 0.788. In the case of A35G G40C, the self-cleavage turned out to be 0.175.

In the case of G34U A39G, the self-cleavage is 1.15. The same measure for G34U A39U: 1.14; for U33C G68U: 0.258; for U33C G68A: 0.104. On to U33A G56C, for which the self-cleavage came out at 0.11. Turning to A35G A36C, the self-cleavage is 0.495.

Consider A35G A36U, for which the self-cleavage amounted to 0.695. Consider U33G A71G, for which the self-cleavage is 0.184.
